Assay results published in paper PMC3406077 (2012).

B1: wild-type full-length (C24-P237) pallilysin [Treponema pallidum subsp. pallidum (Nichols strain)] / plasminogen-depleted human fibrinogen [human] (parent complex)
chain 1: CFQHGHVPPRRIPPHDTFGALPTAALPSNARDTAAHPSDTADNTSGSSTTTDPRSHGNAPPAPVGGAAQTHTQPPVQTAMRIALWNRATHGEQGALQHLLAGLWIQTEISPNSGDIHPLLFFDREHAEITFSRASVQEIFLVDSAHTHRKTVSFLTRNTAISSIRRRLEVTFESHEVIHVRAVEDVARLKIGSTSMWDGQYTRYHAGPASAPSP
chain 2: ADSGEGDFLAEGGGVRGPRVVERHQSACKDSDWPFCSDEDWNYKCPSGCRMKGLIDEVNQDFTNRINKLKNSLFEYQKNNKDSHSLTTNIMEILRGDFSSANNRDNTYNRVSEDLRSRIEVLKRKVIEKVQHIQLLQKNVRAQLVDMKRLEVDIDIKIRSCRGSCSRALAREVDLKDYEDQQKQLEQVIAKDLLPSRDRQHLPLIKMKPVPDLVPGNFKSQLQKVPPEWKALTDMPQMRMELERPGGNEITRGGSTSYGTGSETESPRNPSSAGSWNSGSSGPGSTGNRNPGSSGTGGTATWKPGSSGPGSTGSWNSGSSGTGSTGNQNPGSPRPGSTGTWNPGSSERGSAGHWTSESSVSGSTGQWHSESGSFRPDSPGSGNARPNNPDWGTFEEVSGNVSPGTRREYHTEKLVTSKGDKELRTGKEKVTSGSTTTTRRSCSKTVTKTVIGPDGHKEVTKEVVTSEDGSDCPEAMDLGTLSGIGTLDGFRHRHPDEAAFFDTASTGKTFPGFFSPMLGEFVSETESRGSESGIFTNTKESSSHHPGIAEFPSRGKSSSYSKQFTSSTSYNRGDSTFESKSYKMADEAGSEADHEGTHSTKRGHAKSRPVRGIHTSPLGKPSLSP
chain 3: QGVNDNEEGFFSARGHRPLDKKREEAPSLRPAPPPISGGGYRARPAKAAATQKKVERKAPDAGGCLHADPDLGVLCPTGCQLQEALLQQERPIRNSVDELNNNVEAVSQTSSSSFQYMYLLKDLWQKRQKQVKDNENVVNEYSSELEKHQLYIDETVNSNIPTNLRVLRSILENLRSKIQKLESDVSAQMEYCRTPCTVSCNIPVVSGKECEEIIRKGGETSEMYLIQPDSSVKPYRVYCDMNTENGGWTVIQNRQDGSVDFGRKWDPYKQGFGNVATNTDGKNYCGLPGEYWLGNDKISQLTRMGPTELLIEMEDWKGDKVKAHYGGFTVQNEANKYQISVNKYRGTAGNALMDGASQLMGENRTMTIHNGMFFSTYDRDNDGWLTSDPRKQCSKEDGGGWWYNRCHAANPNGRYYWGGQYTWDMAKHGTDDGVVWMNWKGSWYSMRKMSMKIRPFFPQQ
chain 4: YVATRDNCCILDERFGSYCPTTCGIADFLSTYQTKVDKDLQSLEDILHQVENKTSEVKQLIKAIQLTYNPDESSKPNMIDAATLKSRKMLEEIMKYEASILTHDSSIRYLQEIYNSNNQKIVNLKEKVAQLEAQCQEPCKDTVQIHDITGKDCQDIANKGAKQSGLYFIKPLKANQQFLVYCEIDGSGNGWTVFQKRLDGSVDFKKNWIQYKEGFGHLSPTGTTEFWLGNEKIHLISTQSAIPYALRVELEDWNGRTSTADYAMFKVGPEADKYRLTYAYFAGGDAGDAFDGFDFGDDPSDKFFTSHNGMQFSTWDNDNDKFEGNCAEQDGSGWWMNKCHAGHLNGVYYQGGTYSKASTPNGYDNGIIWATWKTRWYSMKKTTMKIIPFNRLTIGEGQQHHLGGAKQAGDV

Variants of: B1
Test: ELISA; 20 µg protein per well; fibrinogen 0.5 µg per well; parent: 3.2; read off a plot

Variant	response
chain 1 CFQHGHVPPRRIPPHDTFGALPTAALPSNARDTAAHPSDTADNTSGSSTTTDPRSHGNAPPAPVGGAAQTHTQPPVQTAMRIALWNRATHGEQGALQHLLAGLWIQTEISPNSGDIHPLLFFDREHAEITFSRASVQEIFLVDSAHTHRKTVSFLTRNTAISSIRRRLEVTFESAEVIHVRAVEDVARLKIGSTSMWDGQYTRYHAGPASAPSP [chain 1 H175A]	~3.5 O.D. (492 nm)
chain 1 CFQHGHVPPRRIPPHDTFGALPTAALPSNARDTAAHPSDTADNTSGSSTTTDPRSHGNAPPAPVGGAAQTHTQPPVQTAMRIALWNRATHGEQGALQHLLAGLWIQTEISPNSGDIHPLLFFDREHAEITFSRASVQEIFLVDSAHTHRKTVSFLTRNTAISSIRRRLEVTFESHEVIAVRAVEDVARLKIGSTSMWDGQYTRYHAGPASAPSP [chain 1 H179A]	~3.1 O.D. (492 nm)
chain 1 CFQHGHVPPRRIPPHDTFGALPTAALPSNARDTAAHPSDTADNTSGSSTTTDPRSHGNAPPAPVGGAAQTHTQPPVQTAMRIALWNRATHGEQGALQHLLAGLWIQTEISPNSGDIHPLLFFDREHAEITFSRASVQEIFLVDSAHTHRKTVSFLTRNTAISSIRRRLEVTFESHAVIHVRAVEDVARLKIGSTSMWDGQYTRYHAGPASAPSP [chain 1 E176A]	~3.5 O.D. (492 nm)
